Assays:
CUG-BP2 RRM3 wild-type [1] = target: T1, CUG-BP2 RRM3 wild-type (UniProt O95319 416-508, Y508W); experiment: NMR 15N-HSQC titration; 20 mM K phosphate pH 5.8, 10 mM NaCl, 0.1% beta-mercaptoethanol, 25 C (NMR titrations and ITC); hnRNP A1: 10 mM Na phosphate pH 6.5, 10 mM beta-mercaptoethanol; details: protein: recombinant
CUG-BP2 RRM3 F455A [2] = target: T2, CUG-BP2 RRM3 F455A (UniProt O95319 416-508, F455A;Y508W); experiment: ITC; 25 C; 20 mM K phosphate pH 5.8, 10 mM NaCl, 0.1% beta-mercaptoethanol, 25 C (NMR titrations and ITC); hnRNP A1: 10 mM Na phosphate pH 6.5, 10 mM beta-mercaptoethanol; details: protein: recombinant; tags: His-tag (pET28a)
CUG-BP2 RRM3 H429A [3] = target: T3, CUG-BP2 RRM3 H429A (UniProt O95319 416-508, H429A;Y508W); experiment: as above; details: protein: recombinant; tags: His-tag (pET28a)
CUG-BP2 RRM3 Y428A [4] = target: T4, CUG-BP2 RRM3 Y428A (UniProt O95319 416-508, Y428A;Y508W); experiment: as above; details: protein: recombinant; tags: His-tag (pET28a)
CUG-BP2 RRM3 wild-type [5] = target: T1, CUG-BP2 RRM3 wild-type; experiment: as above; details: protein: recombinant
CUG-BP2 RRM3 wild-type [6] = target: T1, CUG-BP2 RRM3 wild-type; experiment: NMR 15N-HSQC titration; 25 C; multiple registers; 20 mM K phosphate pH 5.8, 10 mM NaCl, 0.1% beta-mercaptoethanol, 25 C (NMR titrations and ITC); hnRNP A1: 10 mM Na phosphate pH 6.5, 10 mM beta-mercaptoethanol; details: protein: recombinant
CUG-BP2 RRM3 wild-type [7] = target: T1, CUG-BP2 RRM3 wild-type; experiment: ITC; 20 mM K phosphate pH 5.8, 10 mM NaCl, 0.1% beta-mercaptoethanol, 25 C (NMR titrations and ITC); hnRNP A1: 10 mM Na phosphate pH 6.5, 10 mM beta-mercaptoethanol; details: protein: recombinant
CUG-BP2 RRM3 F455A [8] = target: T2, CUG-BP2 RRM3 F455A; experiment: NMR 15N-HSQC titration; 20 mM K phosphate pH 5.8, 10 mM NaCl, 0.1% beta-mercaptoethanol, 25 C (NMR titrations and ITC); hnRNP A1: 10 mM Na phosphate pH 6.5, 10 mM beta-mercaptoethanol; details: protein: recombinant; tags: His-tag (pET28a)
CUG-BP2 RRM3 F426A = CUG-BP2 RRM3 F426A (UniProt O95319 416-508, F426A;Y508W); experiment: as above; details: protein: recombinant; tags: His-tag (pET28a)
CUG-BP2 RRM3 H429A [9] = target: T3, CUG-BP2 RRM3 H429A; experiment: as above; details: protein: recombinant; tags: His-tag (pET28a)
CUG-BP2 RRM3 Y428A [10] = target: T4, CUG-BP2 RRM3 Y428A; experiment: as above; details: protein: recombinant; tags: His-tag (pET28a)
CUG-BP2 RRM3 Q497A = CUG-BP2 RRM3 Q497A (UniProt O95319 416-508, Q497A;Y508W); experiment: as above; details: protein: recombinant; tags: His-tag (pET28a)
CUG-BP2 RRM3 K453A = CUG-BP2 RRM3 K453A (UniProt O95319 416-508, K453A;Y508W); experiment: as above; details: protein: recombinant; tags: His-tag (pET28a)
CUG-BP2 RRM3 K499A = CUG-BP2 RRM3 K499A (UniProt O95319 416-508, K499A;Y508W); experiment: as above; details: protein: recombinant; tags: His-tag (pET28a)
CUG-BP2 RRM3 K495A = CUG-BP2 RRM3 K495A (UniProt O95319 416-508, K495A;Y508W); experiment: as above; details: protein: recombinant; tags: His-tag (pET28a)
CUG-BP2 RRM3 wild-type [11] = target: T1, CUG-BP2 RRM3 wild-type; experiment: NMR 15N-HSQC titration; protein mutant series; 20 mM K phosphate pH 5.8, 10 mM NaCl, 0.1% beta-mercaptoethanol, 25 C (NMR titrations and ITC); hnRNP A1: 10 mM Na phosphate pH 6.5, 10 mM beta-mercaptoethanol; details: protein: recombinant
CUG-BP2 RRM3 wild-type [12] = target: T1, CUG-BP2 RRM3 wild-type; experiment: NMR 15N-HSQC titration; 25 C; RNA variant series; 20 mM K phosphate pH 5.8, 10 mM NaCl, 0.1% beta-mercaptoethanol, 25 C (NMR titrations and ITC); hnRNP A1: 10 mM Na phosphate pH 6.5, 10 mM beta-mercaptoethanol; details: protein: recombinant

T1 sequence (O95319 416-508 Y508W): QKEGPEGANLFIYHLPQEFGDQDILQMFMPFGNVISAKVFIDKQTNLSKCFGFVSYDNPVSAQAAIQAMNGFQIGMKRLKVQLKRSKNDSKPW
T2 sequence (O95319 416-508 F455A/Y508W): as the sequence (O95319 416-508 Y508W) above, with F40A counted along it
T3 sequence (O95319 416-508 H429A/Y508W): as the sequence (O95319 416-508 Y508W) above, with H14A counted along it
T4 sequence (O95319 416-508 Y428A/Y508W): as the sequence (O95319 416-508 Y508W) above, with Y13A counted along it
CUG-BP2 RRM3 K499A, sequence (O95319 416-508 K499A/Y508W): as the sequence (O95319 416-508 Y508W) above, with K84A counted along it
CUG-BP2 RRM3 Q497A, sequence (O95319 416-508 Q497A/Y508W): as the sequence (O95319 416-508 Y508W) above, with Q82A counted along it
CUG-BP2 RRM3 K453A, sequence (O95319 416-508 K453A/Y508W): as the sequence (O95319 416-508 Y508W) above, with K38A counted along it
CUG-BP2 RRM3 F426A, sequence (O95319 416-508 F426A/Y508W): as the sequence (O95319 416-508 Y508W) above, with F11A counted along it
CUG-BP2 RRM3 K495A, sequence (O95319 416-508 K495A/Y508W): as the sequence (O95319 416-508 Y508W) above, with K80A counted along it

UUUCA (ssRNA)
Kd (CUG-BP2 RRM3 wild-type [1]): 73 ± 13 µM

UGUGU (ssRNA)
Kd (CUG-BP2 RRM3 F455A [2]): 10.4 ± 0.87 µM | Kd (CUG-BP2 RRM3 H429A [3]): 0.27 ± 0.05 µM | Kd (CUG-BP2 RRM3 Y428A [4]): 0.31 ± 0.01 µM | Kd (CUG-BP2 RRM3 wild-type [5]): 1.04 ± 0.04 µM

UUUAC (ssRNA)
Kd (CUG-BP2 RRM3 wild-type [1]): 56 ± 8 µM

CUUAA (ssRNA)
Kd (CUG-BP2 RRM3 wild-type [1]): 54 ± 9 µM

UUCAA (ssRNA)
Kd (CUG-BP2 RRM3 wild-type [1]): 56 ± 12 µM

AUUUAAUU (ssRNA)
Kd (CUG-BP2 RRM3 wild-type [6]): 31 ± 9 µM

UUUAA (ssRNA)
Kd (CUG-BP2 RRM3 wild-type [7]): 18 µM | Kd (CUG-BP2 RRM3 F455A [8]): 41 ± 5 µM | Kd (CUG-BP2 RRM3 F426A): 139 ± 10 µM | Kd (CUG-BP2 RRM3 H429A [9]): 30 ± 4 µM | Kd (CUG-BP2 RRM3 Y428A [10]): 27 ± 3 µM | Kd (CUG-BP2 RRM3 Q497A): 60 ± 10 µM | Kd (CUG-BP2 RRM3 K453A): 78 ± 13 µM | Kd (CUG-BP2 RRM3 K499A): 91 ± 18 µM | Kd (CUG-BP2 RRM3 K495A): 63 ± 6 µM | Kd (CUG-BP2 RRM3 wild-type [11]): 62 ± 12 µM | Kd (CUG-BP2 RRM3 wild-type [12]): 66 ± 14 µM

UCUAA (ssRNA)
Kd (CUG-BP2 RRM3 wild-type [1]): 76 ± 27 µM

Source: paper PMC5608764, “Aromatic side-chain conformational switch on the surface of the RNA Recognition Motif enables RNA discrimination”
